From patent US20250264433A1 (STATE OF ISRAEL MINISTRY OF AGRICULTURE AND RURAL …, published 2025) come the findings set out here.

The target of experiment [1] is T1, EspB of enterohemorrhagic E. coli (EHEC).
T1 construct: also called EHEC EspB
Briefly: western blot of culture supernatants with mAb-EspB-B7.

Experiment [2] addresses T2, Recombinant His-tagged EspB (EspB-His), EPEC O127:H6 strain E2348/69.
T2 construct: also called purified EspB; full-length EspB
Briefly: ELISA, EspB-coated plate; mAb incubated in 3% milk in PBS.

The target of experiment [3] is T2, Recombinant His-tagged EspB (EspB-His), …. Put plainly: ELISA, EspB-coated plate, serially diluted mAb, anti-human IgG-HRP.
Experiment [4] deals with T3, EspB of Citrobacter rodentium DBS100 (Citrobacter rodentium).
T3 construct: also called C. rodentium EspB
Briefly: western blot of culture supernatants, mAb-EspB-B7 as primary antibody.

Experiment [5] addresses T4, EspB homolog of Salmonella enterica serovar Typhimurium (Salmonella enterica serovar Typhimurium, UniProt D0ZV21 1-409).
T4 construct: also called Salmonella EspB homolog
T4 sequence: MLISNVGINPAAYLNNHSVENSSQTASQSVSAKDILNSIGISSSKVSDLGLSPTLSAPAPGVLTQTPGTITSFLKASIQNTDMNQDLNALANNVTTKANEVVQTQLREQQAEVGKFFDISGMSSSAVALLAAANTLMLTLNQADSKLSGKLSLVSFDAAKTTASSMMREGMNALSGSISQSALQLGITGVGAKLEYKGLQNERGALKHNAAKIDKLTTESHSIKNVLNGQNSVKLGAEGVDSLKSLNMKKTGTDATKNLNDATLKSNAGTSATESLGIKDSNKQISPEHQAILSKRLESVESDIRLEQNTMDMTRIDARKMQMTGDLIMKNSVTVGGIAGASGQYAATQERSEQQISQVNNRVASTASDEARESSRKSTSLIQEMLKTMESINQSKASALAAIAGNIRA
The description is as above.

For experiment [6], the target named is T2, Recombinant His-tagged EspB (EspB-His), …. Briefly: ELISA, EspB-coated plate; mAb incubated with NaCl, curve labelled 274mM.
For experiment [7] the target is unchanged. Briefly: ELISA, EspB-coated plate; mAb incubated with NaCl, curve labelled 411mM.
For experiment [8] the target is unchanged. Put plainly: ELISA, EspB-coated plate; mAb incubated with NaCl, curve labelled 45.6mM.
Experiment [9] shares this target. Briefly: ELISA, EspB-coated plate; mAb incubated in goat serum with 1% human serum.
The target is the same in experiment [10]. Briefly: ELISA, EspB-coated plate; mAb incubated in horse serum with 1% human serum.
The target is the same in experiment [11]. Put plainly: SPR (Biacore, EspB amine-coupled to a CM5 chip, mAb injected at 10-90 nM, steady-state fit); ELISA was run as well.

B1: mAb-EspB-B7 (antibody, V domains shown)
VH: EVQLLESGGGLVQPGGSLRLSCAASGFTFSHYAMNWVRQAPGKGLEWVSAINSNGDSTYYPDTVKDRFTISRDNSKNTLYLQMNSLRAEDTAVYYCARDRRAGYFDYWGQGTLVTVSS
VL: DIVLTQPPSASGTPGQRVTISCSGSRDNIGKNYVSWYQQLPGTAPKLLIYRNNQRPSGVPDRFSGSKSGTSASLAISGLRSEDEADYYCSAWDTSLNAYVFGPGTQLTVL
notes: also called mAb-B7; anti-EspB antibody
Consider B1, for which the binding result in [1] was “binds”; in experiment [4], “binds”; in [5], “no binding”. Besides, the “EC50 (read off the curve)” value in experiment [2] was about 5 nM; in experiment [3] it was about 8 nM; in [6], about 7 nM; in experiment [7], about 10 nM; in experiment [8] it was about 3 nM; in [9], about 2 nM. In addition, the “EC50 (read off the curve)” value in experiment [10] is about 3 nM. For the same molecule, the Kd in experiment [11] stood at 17.4 nM.
